Experimental findings from PMC4357434 are described below.

In experiment [1] the target is RFP-tubulin (TagRFP-labeled α-tubulin) (UniProt P68363). Briefly: FRET or BRET; FRET-iMSD (spatiotemporal image correlation of the FRET signal), TIRF time series at 10 ms resolution, about 60 s, live co-transfected CHO cells, basal condition; characteristic time of binding τb from the fit of G(0,τ).
Experiment [2] deals with TRPV1-RFP (Transient Receptor Potential Vanilloid 1 fused at its C-terminus to TagRFP) (UniProt O35433). The experiment is described as above.
Sequence of UniProt O35433 (O35433 whole entry, the tested form may be a part): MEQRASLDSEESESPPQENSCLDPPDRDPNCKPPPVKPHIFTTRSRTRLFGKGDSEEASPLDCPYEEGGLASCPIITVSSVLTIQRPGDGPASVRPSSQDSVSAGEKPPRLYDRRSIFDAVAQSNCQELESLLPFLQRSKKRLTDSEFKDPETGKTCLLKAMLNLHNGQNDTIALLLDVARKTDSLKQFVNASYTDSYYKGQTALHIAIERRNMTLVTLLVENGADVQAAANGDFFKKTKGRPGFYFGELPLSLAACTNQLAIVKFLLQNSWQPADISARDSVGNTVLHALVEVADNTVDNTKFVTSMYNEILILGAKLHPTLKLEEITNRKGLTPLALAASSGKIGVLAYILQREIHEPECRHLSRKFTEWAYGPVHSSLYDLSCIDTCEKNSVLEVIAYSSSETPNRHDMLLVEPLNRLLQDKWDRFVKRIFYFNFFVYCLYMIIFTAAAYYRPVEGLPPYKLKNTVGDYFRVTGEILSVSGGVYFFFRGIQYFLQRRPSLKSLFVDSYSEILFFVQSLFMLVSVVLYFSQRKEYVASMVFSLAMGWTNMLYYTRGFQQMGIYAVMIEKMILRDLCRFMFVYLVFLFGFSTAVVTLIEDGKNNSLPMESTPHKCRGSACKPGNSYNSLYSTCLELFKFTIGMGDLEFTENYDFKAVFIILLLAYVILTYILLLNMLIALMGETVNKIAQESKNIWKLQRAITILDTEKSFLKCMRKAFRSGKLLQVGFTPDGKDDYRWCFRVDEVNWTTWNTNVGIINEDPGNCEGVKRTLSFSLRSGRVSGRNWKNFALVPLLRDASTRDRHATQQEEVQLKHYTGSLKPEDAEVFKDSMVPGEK
Experiment [3] has the same target. Briefly: FRET or BRET; sensitized emission FRET (SE-FRET) imaged in TIRF mode on the membrane of live CHO K1 cells co-transfected with donor- and acceptor-fused proteins; bleed-through corrected; donor-normalised apparent FRET efficiency E D; 37°C.
Experiment [4] has the same target. Briefly: FRET or BRET; acceptor photobleaching FRET in TIRF mode on live co-transfected CHO cells; acceptor bleached at 561 nm; apparent FRET percentage E pb after Stepensky.

Sequence of UniProt P68363 (P68363 whole entry, the tested form may be a part): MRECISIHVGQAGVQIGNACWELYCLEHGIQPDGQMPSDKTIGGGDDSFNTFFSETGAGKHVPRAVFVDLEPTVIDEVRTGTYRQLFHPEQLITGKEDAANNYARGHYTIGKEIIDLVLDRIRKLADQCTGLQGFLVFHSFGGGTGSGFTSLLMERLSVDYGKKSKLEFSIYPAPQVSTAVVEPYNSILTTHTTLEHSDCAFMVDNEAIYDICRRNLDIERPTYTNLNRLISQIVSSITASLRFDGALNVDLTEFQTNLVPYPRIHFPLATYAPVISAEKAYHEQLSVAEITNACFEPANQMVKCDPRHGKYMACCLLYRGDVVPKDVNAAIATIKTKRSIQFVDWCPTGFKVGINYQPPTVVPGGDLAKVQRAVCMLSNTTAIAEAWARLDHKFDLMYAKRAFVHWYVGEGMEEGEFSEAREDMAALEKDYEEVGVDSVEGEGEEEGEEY

In turn, “TRPV1-EGFP (from UniProt O35433 1-838) (receptor)” came in with a τb (characteristic time of binding) in experiment [1] greater than 60 s.

B1: Caveolin-1-EGFP (natural protein)
chain: MSGGKYVDSEGHLYTVPIREQGNIYKPNNKAMAEEMSEKQVYDAHTKEIDLVNRDPKHLNDDVVKIDFEDVIAEPEGTHSFDGIWKASFTTFTVTKYWFYRLLSALFGIPMALIWGIYFAILSFLHIWAVVPCIKSFLIEIQCISRVYSIYVHTFCDPFFEAVGKIFSNIRINMQKET
Regarding B1, in experiment [2], the τb (characteristic time of binding) is 16.4 s. Moreover, in experiment [3], the apparent FRET efficiency E D is 4%. Further, in experiment [4], the apparent FRET percentage E pb (acceptor photobleaching) came out at 11%.

B2: Caveolin-1-YFP (natural protein)
chain: MSGGKYVDSEGHLYTVPIREQGNIYKPNNKAMAEEMSEKQVYDAHTKEIDLVNRDPKHLNDDVVKIDFEDVIAEPEGTHSFDGIWKASFTTFTVTKYWFYRLLSALFGIPMALIWGIYFAILSFLHIWAVVPCIKSFLIEIQCISRVYSIYVHTFCDPFFEAVGKIFSNIRINMQKET
For the molecule B2, in experiment [3], the apparent FRET efficiency E D amounted to 30%.
